Test results as given in US20230416345A1 (NAVIGO PROTEINS, published 2023).

T1: human collagen type III (human, UniProt P02461 154-1221)
T1 construct: Bought; also called h Col III; type III collagen
T1 sequence (looked up): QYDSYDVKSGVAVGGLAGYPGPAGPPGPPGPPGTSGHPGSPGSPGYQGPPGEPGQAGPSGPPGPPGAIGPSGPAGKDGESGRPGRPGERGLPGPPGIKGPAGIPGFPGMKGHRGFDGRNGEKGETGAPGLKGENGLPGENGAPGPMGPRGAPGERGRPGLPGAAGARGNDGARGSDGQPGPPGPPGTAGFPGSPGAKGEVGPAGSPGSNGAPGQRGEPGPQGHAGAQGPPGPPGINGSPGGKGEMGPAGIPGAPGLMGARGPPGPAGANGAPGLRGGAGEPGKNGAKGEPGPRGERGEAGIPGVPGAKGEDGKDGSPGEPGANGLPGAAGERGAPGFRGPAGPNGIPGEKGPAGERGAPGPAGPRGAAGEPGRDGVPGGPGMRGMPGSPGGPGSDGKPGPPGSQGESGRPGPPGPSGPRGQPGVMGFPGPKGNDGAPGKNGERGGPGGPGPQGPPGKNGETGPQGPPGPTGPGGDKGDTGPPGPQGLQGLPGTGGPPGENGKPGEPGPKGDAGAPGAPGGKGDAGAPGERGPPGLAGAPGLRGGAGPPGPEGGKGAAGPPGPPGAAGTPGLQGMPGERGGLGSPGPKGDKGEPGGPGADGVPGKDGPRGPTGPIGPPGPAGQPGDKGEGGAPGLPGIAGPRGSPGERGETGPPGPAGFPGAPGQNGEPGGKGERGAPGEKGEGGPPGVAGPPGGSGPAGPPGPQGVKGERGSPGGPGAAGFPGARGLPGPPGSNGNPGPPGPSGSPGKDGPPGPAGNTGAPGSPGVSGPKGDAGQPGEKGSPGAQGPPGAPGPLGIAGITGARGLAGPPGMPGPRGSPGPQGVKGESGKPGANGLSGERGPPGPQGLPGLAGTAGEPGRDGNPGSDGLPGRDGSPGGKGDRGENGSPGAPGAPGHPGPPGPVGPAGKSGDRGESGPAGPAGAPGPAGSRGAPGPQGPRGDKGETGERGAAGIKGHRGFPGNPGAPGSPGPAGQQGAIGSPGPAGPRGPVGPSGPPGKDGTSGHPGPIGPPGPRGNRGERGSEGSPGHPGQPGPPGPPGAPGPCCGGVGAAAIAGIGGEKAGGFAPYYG


What was measured:
[1] = target: T2, 67B89 (domain of fibronectin) (UniProt P02751 1089-1540, limits assumed); assay: ELISA, 67B89 coated on the plate, A 450-600 nm
T2 construct: domain: EDB (67B89); Unrelated control protein; also called fibronectin domain EDB (67B89); extradomain B of fibronectin
Description: (§1) High binding plates (Greiner, 781061) were immobilized with 2.5 μg/ml recombinant human collagen type II (h Col II, Chondrex, CHX-20051), rabbit collagen type II (rbCol II, prepared from rabbit eyes), porcine collagen type II (p Col II, prepared from porcine eyes), human collagen type I, (h Col I, Sigma, C5483-1MG), human collagen type V (h Col V, Abcam, ab7537), human collagen type III (h Col Ill, Abcam, ab7535) and 67B89 (domain of fibronectin, produced in E. coli) respectively over night at 4° C. ELISA-plates were washed 3 times with PBST (PBS+ 0.1% Tween) and blocked with 3% BSA/0.5% Tween/PBS 2 h at RT. […] Plates were washed with PBST and incubated with biotinylated anti-StrepTag-ab (Antikörper-online, ABIN1573895) with a dilution of 1:10.000 for 1 h at rt. The binding was visualized with a-rabbit-IgG-HRP (Sigma, A9169) with a dilution of 1:10.000 and as substrate TMB Plus von KEM EN TEC Diagnostic, Kat-Nr. 4395.
(§2) Results. ELISA analysis clearly confirms the specific binding to type II collagen. […] No unspecific binding to type I collagen, type III collagen, type V collagen or to a domain of fibronectin (67B89) was detected (FIG. 2).

human collagen type I [2] = target: T3, human collagen type I (human, UniProt P02452 162-1218; P08123 80-1119); assay: ELISA, h Col I coated on the plate, A 450-600 nm
T3 construct: Bought; also called h Col I; type I collagen
Description: as §1, §2

human collagen type V [3] = target: T4, human collagen type V (human, UniProt P20908 559-1570; P05997 216-1229); assay: ELISA, h Col V coated on the plate, A 450-600 nm
T4 construct: Bought; also called h Col V; type V collagen
Description: as §1, §2

human collagen type III [4] = target: T1, human collagen type III; assay: ELISA, h Col III coated on the plate, A 450-600 nm
Description: as §1, §2

porcine collagen type II [5] = target: T5, porcine collagen type II (porcine); assay: ELISA, collagen coated on the plate, dilution series of the binder, detection via StrepTag, A 450-600 nm
T5 construct: Prepared in house from pig eyes; also called p Col II; porcine type II collagen
Description: as §1, §2

rabbit collagen type II = target: T6, rabbit collagen type II (rabbit); assay: as above
T6 construct: Prepared from rabbit eyes; also called rbCol II
Description: as §1, §2

human collagen type V [6] = target: T4, human collagen type V; assay: SPR (Biacore 3000)
Description: (§3) The purified proteins were immobilized on a CM-5 sensor chip (GE Healthcare) using NHS/EDC after PDEA activation resulting in 110-140 RU with a Biacore 3000 system (GE Healthcare). The chip was equilibrated with SPR running buffer (PBS 0.05% Tween pH 7.3). Upon binding, target analyte was accumulated on the surface increasing the refractive index. This change in the refractive index was measured in real time and plotted as response or resonance units versus time. The analytes were applied to the chip in serial dilutions with a flow rate of 30 μl/min. The association was performed for 120 seconds and the dissociation for 120 seconds. After each run, the chip surface was regenerated with 30 μl regeneration buffer (10 mM glycine pH 2.0) and equilibrated with running buffer.
(§4) Binding studies were carried out by the use of the BIAcore 3000 (GE Healthcare); data evaluation was operated via the BIAevaluation 3.0 software, provided by the manufacturer, using the Langmuir 1:1 model (RI=0). Evaluated dissociation constants (KD) were standardized against the immobilized protein and indicated. Shown is the change in refractive index measured in real time and plotted as response or resonance unit [RU] versus time [sec].

[7] = target: T2, 67B89 (domain of fibronectin); assay: SPR (Biacore 3000)
Description: as §3, §4

BSA [8] = target: T7, BSA (UniProt P02769 25-607); assay: SPR (Biacore 3000)
T7 construct: Control protein
Description: as §3, §4

porcine collagen type II [9] = target: T5, porcine collagen type II; assay: ELISA (KD determination by ELISA, Example 5)
human collagen type I [10] = target: T3, human collagen type I; assay: SPR (Biacore), response at steady state; concentration not shown
Description: as §3, §4

human collagen type III [11] = target: T1, human collagen type III; assay: as above
Description: as §3, §4

human collagen type V [12] = target: T4, human collagen type V; assay: as above
Description: as §3, §4

[13] = target: T2, 67B89 (domain of fibronectin); assay: as above
Description: as §3, §4

BSA [14] = target: T7, BSA; assay: as above
Description: as §3, §4

T4 sequence (P20908 559-1570, chain 1 of 2): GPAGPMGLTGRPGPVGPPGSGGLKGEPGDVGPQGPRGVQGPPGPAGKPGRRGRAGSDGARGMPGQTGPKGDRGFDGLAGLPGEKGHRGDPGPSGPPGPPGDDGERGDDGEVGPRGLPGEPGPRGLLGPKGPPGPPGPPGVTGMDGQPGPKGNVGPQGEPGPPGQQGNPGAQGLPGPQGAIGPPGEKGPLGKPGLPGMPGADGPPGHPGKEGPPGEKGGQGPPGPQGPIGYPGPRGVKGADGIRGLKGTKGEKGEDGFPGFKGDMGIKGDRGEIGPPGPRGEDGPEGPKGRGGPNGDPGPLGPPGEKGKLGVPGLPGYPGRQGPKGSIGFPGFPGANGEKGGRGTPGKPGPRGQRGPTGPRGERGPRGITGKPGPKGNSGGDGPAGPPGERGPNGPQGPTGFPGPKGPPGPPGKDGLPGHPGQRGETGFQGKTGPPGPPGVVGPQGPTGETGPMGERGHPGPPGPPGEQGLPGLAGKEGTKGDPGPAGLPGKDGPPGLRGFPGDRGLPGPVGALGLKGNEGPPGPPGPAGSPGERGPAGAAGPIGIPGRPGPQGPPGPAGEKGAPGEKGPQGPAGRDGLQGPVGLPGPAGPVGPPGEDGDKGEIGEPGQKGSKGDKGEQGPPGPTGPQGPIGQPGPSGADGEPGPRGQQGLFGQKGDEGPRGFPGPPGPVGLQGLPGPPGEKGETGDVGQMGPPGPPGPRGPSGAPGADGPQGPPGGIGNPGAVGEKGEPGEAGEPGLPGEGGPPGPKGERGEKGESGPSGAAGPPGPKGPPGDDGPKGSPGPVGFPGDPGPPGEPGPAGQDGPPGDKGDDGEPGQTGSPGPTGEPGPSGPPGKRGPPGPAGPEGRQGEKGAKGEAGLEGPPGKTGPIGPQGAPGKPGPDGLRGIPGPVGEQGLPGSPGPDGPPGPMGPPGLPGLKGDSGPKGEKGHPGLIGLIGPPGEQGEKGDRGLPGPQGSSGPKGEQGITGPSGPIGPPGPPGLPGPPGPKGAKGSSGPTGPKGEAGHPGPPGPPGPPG
T4 sequence (P05997 216-1229, chain 2 of 2): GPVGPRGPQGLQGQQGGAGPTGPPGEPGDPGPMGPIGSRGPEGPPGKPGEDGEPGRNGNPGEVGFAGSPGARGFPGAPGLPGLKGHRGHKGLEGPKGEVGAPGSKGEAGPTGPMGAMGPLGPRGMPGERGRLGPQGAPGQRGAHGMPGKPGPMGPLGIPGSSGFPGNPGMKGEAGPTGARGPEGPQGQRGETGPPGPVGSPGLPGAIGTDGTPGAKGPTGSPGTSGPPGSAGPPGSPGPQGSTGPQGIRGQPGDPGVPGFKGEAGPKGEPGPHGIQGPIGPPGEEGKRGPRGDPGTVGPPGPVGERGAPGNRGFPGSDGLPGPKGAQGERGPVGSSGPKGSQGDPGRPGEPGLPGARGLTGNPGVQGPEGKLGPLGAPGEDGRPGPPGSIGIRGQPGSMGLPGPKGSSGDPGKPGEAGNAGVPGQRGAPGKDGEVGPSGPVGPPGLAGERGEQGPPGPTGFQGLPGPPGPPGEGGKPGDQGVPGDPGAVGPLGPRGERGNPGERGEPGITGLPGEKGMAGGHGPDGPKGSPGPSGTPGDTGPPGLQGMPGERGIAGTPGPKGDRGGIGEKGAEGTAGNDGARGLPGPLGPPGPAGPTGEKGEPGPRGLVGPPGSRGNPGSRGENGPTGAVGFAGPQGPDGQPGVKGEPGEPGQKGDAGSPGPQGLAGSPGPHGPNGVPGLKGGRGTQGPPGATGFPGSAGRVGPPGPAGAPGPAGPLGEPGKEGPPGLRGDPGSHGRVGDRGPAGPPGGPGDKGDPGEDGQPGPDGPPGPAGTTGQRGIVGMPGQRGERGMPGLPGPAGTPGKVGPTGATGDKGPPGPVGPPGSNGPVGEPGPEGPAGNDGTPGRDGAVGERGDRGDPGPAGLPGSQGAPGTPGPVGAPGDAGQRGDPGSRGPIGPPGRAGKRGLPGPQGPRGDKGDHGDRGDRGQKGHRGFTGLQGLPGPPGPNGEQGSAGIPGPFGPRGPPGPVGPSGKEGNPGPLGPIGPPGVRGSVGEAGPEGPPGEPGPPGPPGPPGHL
T3 sequence (P02452 162-1218, chain 1 of 2): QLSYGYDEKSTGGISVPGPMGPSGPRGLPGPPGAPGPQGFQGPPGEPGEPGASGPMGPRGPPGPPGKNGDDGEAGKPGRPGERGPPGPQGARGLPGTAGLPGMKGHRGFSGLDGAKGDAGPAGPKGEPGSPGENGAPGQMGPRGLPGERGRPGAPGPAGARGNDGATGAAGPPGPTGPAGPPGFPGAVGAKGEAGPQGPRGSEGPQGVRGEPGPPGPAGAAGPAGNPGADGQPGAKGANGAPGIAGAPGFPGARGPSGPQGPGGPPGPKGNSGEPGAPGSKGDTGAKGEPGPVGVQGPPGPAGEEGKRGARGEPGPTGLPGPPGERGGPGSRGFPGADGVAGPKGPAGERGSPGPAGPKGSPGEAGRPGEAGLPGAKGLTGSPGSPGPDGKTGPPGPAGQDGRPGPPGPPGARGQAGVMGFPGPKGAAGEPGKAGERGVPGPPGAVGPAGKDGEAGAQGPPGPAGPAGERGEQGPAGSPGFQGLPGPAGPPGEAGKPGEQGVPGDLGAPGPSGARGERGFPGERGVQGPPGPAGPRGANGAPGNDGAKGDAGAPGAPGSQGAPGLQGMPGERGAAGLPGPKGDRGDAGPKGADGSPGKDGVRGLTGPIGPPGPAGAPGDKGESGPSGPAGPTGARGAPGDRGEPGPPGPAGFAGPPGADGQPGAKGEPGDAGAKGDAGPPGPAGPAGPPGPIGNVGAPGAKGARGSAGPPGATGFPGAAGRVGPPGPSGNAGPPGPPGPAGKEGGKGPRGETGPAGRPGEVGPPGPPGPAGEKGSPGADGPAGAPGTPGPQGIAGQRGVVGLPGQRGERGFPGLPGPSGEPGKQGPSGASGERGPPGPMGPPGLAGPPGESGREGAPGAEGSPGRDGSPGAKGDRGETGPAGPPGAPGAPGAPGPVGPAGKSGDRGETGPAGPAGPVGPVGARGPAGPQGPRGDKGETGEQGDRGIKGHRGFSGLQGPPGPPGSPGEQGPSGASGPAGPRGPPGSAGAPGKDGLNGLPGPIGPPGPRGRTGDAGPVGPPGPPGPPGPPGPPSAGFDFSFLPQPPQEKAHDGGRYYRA
T3 sequence (P08123 80-1119, chain 2 of 2): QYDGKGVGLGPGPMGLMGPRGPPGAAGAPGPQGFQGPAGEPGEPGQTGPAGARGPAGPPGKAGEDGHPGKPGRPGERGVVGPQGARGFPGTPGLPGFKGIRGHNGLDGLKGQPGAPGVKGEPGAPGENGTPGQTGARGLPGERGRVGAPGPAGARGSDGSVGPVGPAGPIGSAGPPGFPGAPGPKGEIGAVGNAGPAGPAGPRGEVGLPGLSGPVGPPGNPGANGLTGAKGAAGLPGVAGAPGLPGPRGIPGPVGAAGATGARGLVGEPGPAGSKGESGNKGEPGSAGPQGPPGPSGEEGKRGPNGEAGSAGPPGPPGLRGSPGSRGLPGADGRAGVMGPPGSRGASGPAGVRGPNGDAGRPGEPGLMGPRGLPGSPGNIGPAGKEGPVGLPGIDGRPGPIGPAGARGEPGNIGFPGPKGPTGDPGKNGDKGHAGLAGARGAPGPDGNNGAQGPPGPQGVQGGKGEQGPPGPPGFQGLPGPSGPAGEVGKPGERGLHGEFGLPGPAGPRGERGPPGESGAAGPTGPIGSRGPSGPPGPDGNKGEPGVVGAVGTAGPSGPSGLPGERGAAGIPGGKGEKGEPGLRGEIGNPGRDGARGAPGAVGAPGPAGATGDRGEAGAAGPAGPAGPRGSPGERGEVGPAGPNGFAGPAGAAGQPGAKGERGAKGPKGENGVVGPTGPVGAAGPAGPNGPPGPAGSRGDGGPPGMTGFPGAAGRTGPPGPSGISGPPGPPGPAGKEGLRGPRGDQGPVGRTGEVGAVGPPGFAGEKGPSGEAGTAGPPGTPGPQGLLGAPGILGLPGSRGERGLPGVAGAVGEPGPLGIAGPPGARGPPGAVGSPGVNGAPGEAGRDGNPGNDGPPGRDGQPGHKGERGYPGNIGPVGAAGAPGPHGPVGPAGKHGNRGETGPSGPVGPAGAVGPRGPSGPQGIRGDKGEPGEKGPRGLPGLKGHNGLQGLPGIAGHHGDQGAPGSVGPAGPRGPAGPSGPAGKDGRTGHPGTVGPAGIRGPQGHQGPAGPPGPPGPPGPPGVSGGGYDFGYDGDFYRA
T2 sequence (P02751 1089-1540 limits assumed): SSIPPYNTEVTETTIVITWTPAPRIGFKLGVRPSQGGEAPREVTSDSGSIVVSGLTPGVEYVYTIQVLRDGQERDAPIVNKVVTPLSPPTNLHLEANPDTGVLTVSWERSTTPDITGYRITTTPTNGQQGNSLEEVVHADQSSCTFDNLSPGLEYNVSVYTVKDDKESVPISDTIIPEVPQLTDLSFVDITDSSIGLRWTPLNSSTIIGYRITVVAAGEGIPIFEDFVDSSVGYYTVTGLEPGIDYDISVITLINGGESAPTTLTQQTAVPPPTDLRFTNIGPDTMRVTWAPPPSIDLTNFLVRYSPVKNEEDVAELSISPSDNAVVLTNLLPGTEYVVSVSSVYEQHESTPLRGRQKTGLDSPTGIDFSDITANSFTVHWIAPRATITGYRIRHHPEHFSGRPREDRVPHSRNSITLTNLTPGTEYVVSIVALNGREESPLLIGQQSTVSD

| Binder | binding result [1] | binding result (human collagen type I [2]) | binding result (human collagen type V [3]) | binding result (human collagen type III [4]) | Kd (porcine collagen type II [5]) | Kd (rabbit collagen type II) | binding result (human collagen type V [6]) | binding result [7] | binding result (BSA [8]) | Kd (porcine collagen type II [9]) | binding result (human collagen type I [10]) | binding result (human collagen type III [11]) | binding result (human collagen type V [12]) | binding result [13] | binding result (BSA [14]) |
| --- | --- | --- | --- | --- | --- | --- | --- | --- | --- | --- | --- | --- | --- | --- | --- |
| CID 212001 (SEQ ID NO: 41), tetramer of SEQ ID NO: 2 (designed binder, not shown: C-terminal Strep-tag (detected with anti-StrepTag antibody)) IAAKFDEAQSAADSEILHLPNLTEQQRHYFRRWLSDDPSVSTHILTQAQHLNDDQAPKIAAKFDEAQSAADSEILHLPNLTEQQRHYFRRWLSDDPSVSTHILTQAQHLNDDQAPKIAAKFDEAQSAADSEILHLPNLTEQQRHYFRRWLSDDPSVSTHILTQAQHLNDDQAPKIAAKFDEAQSAADSEILHLPNLTEQQRHYFRRWLSDDPSVSTHILTQAQHLNDDQAPKSAWSHPQFEK | no binding (tested: 100 nM) | no binding (tested: 100 nM) | no binding (tested: 100 nM) | no binding (tested: 100 nM) | 0.27 nM | 0.21 nM | – | – | – | – | – | – | – | – | – |
| 211190 (SEQ ID NO: 1) (designed binder, also called CID211190; not shown: C-terminal Strep-tag from the expression vector) NAASHDEAQLSALVEIWDLPNLTTRQKQKFIYSLQRDPSVSKEVLGEAQKLNDSQAPK | – | – | – | – | – | – | no binding | no binding | no binding | – | – | – | – | – | – |
| CID 211999 (SEQ ID NO: 38), dimer of SEQ ID NO: 2 (directly joint monomers) (designed binder, not shown: C-terminal Strep-tag (detected with anti-StrepTag antibody)) IAAKFDEAQSAADSEILHLPNLTEQQRHYFRRWLSDDPSVSTHILTQAQHLNDDQAPKIAAKFDEAQSAADSEILHLPNLTEQQRHYFRRWLSDDPSVSTHILTQAQHLNDDQAPKSAWSHPQFEK | no binding (tested: about 1100 nM) | no binding (tested: about 1100 nM) | no binding (tested: about 1100 nM) | no binding (tested: about 1100 nM) | 14.3 nM | 21.1 nM | – | – | – | – | – | – | – | – | – |
| 211519 (SEQ ID NO: 37), homodimer of SEQ ID NO: 11 (designed binder, also called CID 211519; not shown: C-terminal Strep-tag from the expression vector) IAAKFDEAQQAAFYEILHLPNLTEQQRNYFIQWLRDDPSVSPTVLGTAQQLNDSQAPKIAAKFDEAQQAAFYEILHLPNLTEQQRNYFIQWLRDDPSVSPTVLGTAQQLNDSQAPK | – | – | – | – | – | – | – | – | – | 700 nM | no binding | no binding | no binding | no binding | no binding |
| CID 212000 (SEQ ID NO: 39), dimer of SEQ ID NO: 2 with linker between the monomers (designed binder, not shown: C-terminal Strep-tag (detected with anti-StrepTag antibody)) IAAKFDEAQSAADSEILHLPNLTEQQRHYFRRWLSDDPSVSTHILTQAQHLNDDQAPKGGGGSGGGGSGGGGSGGGGSIAAKFDEAQSAADSEILHLPNLTEQQRHYFRRWLSDDPSVSTHILTQAQHLNDDQAPKSAWSHPQFEK | no binding (tested: about 1100 nM) | no binding (tested: about 1100 nM) | no binding (tested: about 1100 nM) | no binding (tested: about 1100 nM) | 9.11 nM | 12 nM | – | – | – | – | – | – | – | – | – |
